In the DeepSol protein solubility set:

test: soluble on expression in E. coli; label from the status in PepcDB or PDB records

Soluble on expression in E. coli, not soluble:
MGSDKIHHHHHHMTYPKRIPINAWSEVHRVARPLIITFDAYNTLYATKLPVMEQYCIVGRKYGIKANPSTLTNNFPHVFKKLKEDYPQYGKYSGIKPEQWWSILIRNVFAPNEIPDEMINEILMRFEGFDSYFVYPDLIKFLKDLKSRHPDVILGIVSNTDPIFYKLLKNIGLFETFSGHIYLSYELNLAKPDRAIFQYALDDIISKQPHLLEKYTREEILQHCFHIGDELKNDLEGAEAAGWTGILLDRNDKYGFLSNSISKPMRDEYKLSIDKIDNNSINTWEANTKQTDTLQLSERKYVVSNLEVLEELFP
MGSDKIHHHHHHMVAITSCSDDSDGIPGWPWNDNSTEGPENPDVTEIKPRYVWIDAAANFPDYANNKENISTDMVKVKNAGFTDIIVDVRPTTGDVLFNTTAVDQVKRMDVWGSSGYVYYERTETWDYLQAFIDAARSQGLKVHASVNTFVGGYLCPYNLGSDGILFRDDSKKEWASVANLADGLTNTMDLLNDETDYGAKFLNPANDDVQNFVLQLLGDLAKYDLDGIILDRCRYDDYGLESDFSAVSKQKFEEYIGETVAHFPEDIMAPGTDEIPSDQPAYFKKWLEFRVKVIHDFIVKAREKVKSVNSEINFGVYVGAWYSSYYTSGVNWASPKYDTSAYYPKWATADYKNYGYADHLDYIFLGAYASVDKIYGSGEWTMEGFCKNGRELLKGDVPFSGGPDIGNGTGWTNGGQAAKIPDAIDACINNSDGFFAFDLCHIKMYDYWNAFKTGFDNYLESVQK
MGSDKIHHHHHHMVKGLRQLNNRVDILSLPGAEPEVEEAKAIDEKVNQPPTKKSSFSILSDLTKHVPEFVFELFELAFNLIAVIRLRKTVKEKNITLIYERYSLFMFASVWWAKRHNLPIVLEINDSCQVQRVRSLTFKKLAAKIEGWIFKNATGLVFISTRFKEVAEQAYGEISNSVVSPNGADLDKFIIDETSGLALRSKLGVENKIVLGYVGAFVHWHGIDWFVDLACQKLKETPELVLLLVGDGVAFEGIKKRVIEAGVESQVILPGKVPHHEVSSFLSAMDLGILPDSNDYGSPMKLFEFMAMGKGMIAPDFSPIAEVVQDNATSWLFPASNKQACIDKVFEIVNDREAHQEVGKKARAYIENERQWKHNAEQLLSLVTAREKA
MGSDKIHHHHHHMVKIMQYINKSKEEFLSEIYRIVAKIRLELELTTSEITISDFEFKMDSENSKNLILMIYTPTRTDKSLLIGPGGWVVGKLREKLNGSFKENLIIRVESYIDRKKELDAIENSISHLREKGLDISSKKDALVIIQCEYDLSSIDFINEYFNPIFITFDLGTALLPHKNRNRIEQVFKDKNLKYEFLSPYSLNGEQITDAISKNPCETICNNLISEMVNYAKNKNIEIVLFNHLNKDYEFRNGIHILNFLKMFPIKLNSLIHKGRSLDCPLLIQSCKRNKITKTFKIKQIVSGVYSGLVEPTEGAEEIIKYLK
MGSDKIHHHHHHMVKPDHGRKRQIELTEIGERIYQHAVELLQAEQNIFLEIENYQQLKTGTLKLGVPPLGSQLLTTALFDFHRQWPDIELAFMEVGSRGIEQALLNNELDVGVLLQPFDEQTFNSIELCNYPLMVLLRRDATWATRKKINLEELQHQSFLMFPENFSLNSIILDACKQYGFYPTIACRTSQWHLLADMVLQRMGIALLPQYYTDMLDPTLFAAVPLEKPNIQWHLVMAWKKNLPASPAVQAWLSIVRQHFQHIKP
MGSDKIHHHHHHMVKWYKTYLEVYGKSFDEISDDSIRKVKRQLKERQNDSPLVSVVLIAHNEERHLISCIWSLSENHCHFPIEIIAVNNNSTDKTEEILKSLGVTYYNETKKGPGYARQCGLDHAKGKYHICIDADTLYPPHYIETHVKYLMNPKVACTFSLWSFMVDERHSRFGLWCYEGLRDIYLRLQAIQRPELCVRGMAFSFNTEIGRRFGFRTDIIRGEDGSLALAMKPYGKIVFITSRKARVLTSNGTLNSEGSLIDNIWIRVIKALKEITGLFIKKTAYKDKDSNLIK
MGSDKIHHHHHHMVQTVYKNSDQTVFEDAKALFQLNKNILLKGPTGSGKTKLAETLSNVMKLPMHQVNCSVDLDTESLLGFKTIHTNEEGHQEIVFIDGPVIKAMKEGHILYIDEINMAKPETLPILNGVLDYRRQLTNPYTGEVIKAAPGFNVIAAINEGYVGTLPMNEALKNRFIVIEVDYIDGDILKTVIKEQSKLQDEQLIQHIVKFNEDLRTMTKQGQISEEAASIRALIDLSDLATVMPIERAVQRTIIDKLEDEREQQAILNAIELNF
MGSDKIHHHHHHMVRPASRSERASLRIMNINPWRCEVSEKLLKQVNDKVSLCEKIAAEGFSFVPGQQIREWLLASNSEALQDWQAFDASWDGMPLDEYMADGGRYRRRRFATLSAATEGPIMLEPHQPHYQSREYNSLNGGIARIYEPIPPAVIQGQTMQSILQLSRDLFSHLRPQTRWHIEAHQFRIETNQHERGQPAPEGVHRDGVDYVLVMMVKRVNISSGTTTLHNLDKVVLDSFTLTNPLDCALVDDRRCMHGVTPVEQIDPAKAAYRDVLVVTFTAKL
MGSDKIHHHHHHMVSEQVRERAKAGPIPKADYQALFDALEAERSPRDPEWVQAWIILHCATRQRAFACQRLLSRYNRQCVKRGTMGEYSEFLRHVQDDLGFYLPNGNAYTENFRGVDVGEIMAQCGELAARFAELELEVFANSGTLLGIVREGTLLEHDNDIDLGVLLTARTFEGAAQEWIALTDKLIADGVGVSRSTWSKVTLKLQKIGAFGVDLFPAWIDADDKVYVYPHTFGALRRDQLLPYDLHGPTGLHLPADAEAMLECNYGEGWRVPNVGWGFDWKTANAQFEAFLTAVEAAAAPD
MGSDKIHHHHHHMWEVRYLNAELLDLKLWGEGCRLYQIRQMGDDEICLIQTDDTPQESLCERWQVVYAERGAVQQLLFEFTDEAEACEFMYREIKRIKHPHLVGLFPTDAEAEQFCQVLTQLEIQFSHDPQGRVRVYDQEIFTVERHFGCQLPLRKWLSVPERIHVTLARLRKFDPYNCYAQITTNPPIGSEAKLSELEAEHRIKLPEVYRTFLLEVCNGGNWERLGHYWSAEEVMANNSAQLWNQPLPEFLAKLKAAKSGDWLTNPGNRQYPGLLRIVDWDNPVRDLFLTQEGYEVEIQGDWIRFCEFSPEQWLKDFLDDIQYGLFPIEGLLAFLRSGELIRDYPYFHTVNFARLLAETIGLNIDPELTNEQVKMSDEIDYKINQWRIENMGKMRYNFGFNAEQAEVRRQRILERLEYLYQLYS
MGSDKIHHHHHHMWFKNLMTYRLTKPLDWDLAQLQTQLEDCQFHPCGTQDQSKFGWSAPLRGSDLLYFSVGKQILLIAKKEEKILPANVVKRELDDRIESLEQKENRKLKKVEKQTLKDDVVMNLLPRAFSKNQHTALWIDTENNLIHIDAASSKRAEDALALLRKSLGSLPVVPLAFANEPSTILTNWILQDNLPHWLLALEEAELRGSQEDSVIRCKKQPLENEEILALLQDGKKVVSKLALEWEDTLTFVFNEDCTIKRLKFADTVREKNDDILKEDFAQRFDADFVLMTGILAKLTENLLDEFGGEKARL
MGSDKIHHHHHHMYDLIGVGIGPMNLGLSALAHPTPLRTLFFDESEQFSWHPGMMIKDSMMQTSFISDLVTLADPTSPFTYLNYLRSLNRLHTFYFYEKLLISRQEYNAYLKWVSTQLDDLHFSTRVIDIQDTGDSYEVLVEEVATGKRTTYETRNVVLGTGSKPSIPGSFDKNVIHNTQYVMEKEAILQQDKVSIVGSGQSAAEIFLDLLTSDRPETFELEWISRSTIFETLETGKLGEEIFSPSYVRYFNSLPLATRQEAVAKFTRSQNGISPETLQAIYEHLYDLSPEEQQRVKIRANLEVDQISYDSDFTITMRHTELNEQRTSKTGAVVAATGFVPSLPRFINRLDIEFEGEQQAWKVDANYRISRTVSANHHLYATTNLELSHGPAADNLGMSVSRNQLILNDVAGKELYPVEQHATFTTFD
MGSDKIHHHHHHMYLIGSDIGTQGTKSVIVNEKGEVLAEAFREYEVITPKPNWAEQWPDVWVKAVFETVKEVVEKSGVSKKEIAGIAISGLYGGSGIPVDRNMQPLRPCLIWMDRRAVKETEWVKQNVPKEKLFEITGNYVDSYFGFTKIMWIRNNEPEIWEKIYKFITPKDYVIYQMTGEVVIDYSSAGNLGGVFDIRKLTWSKEMCDVLGIPIEFLPERIVKSSDVVGRVTKEASELCGLLEGTPVVAGGIDAPVAQLSAGALEEGEHVAMVGTSTCWGTVHDGSKLAFGLVNYPYVVYDTERIYTFGGSATTGALARWFKEQFGESETIVGERTGISPYQLFDKEVANIPAGSEGIIVLPYFMGERSPIWDPTARGVFFGVTLYHKRAHLYRALMEGGAYALRHNMEEGLKAGLKLNDECWIVGGVSKSSVWVKIFADVTGFKMRQVASLVEAPYGDAFLAGLGTGVIDKPERIKEWVKYRDPVEPDPENKKIYDRYYEIYRELYERTKDLMARL
MGSDKIHHHHHHMYLKELSMMPGVSGDEGKVRDFIKSKIEGLVDNLYTDVLGNLIALKRGRDSSKKLLVSAHMDEVGFVVSKIEKDGKVSFLPVGGVDPRILPGKVVQVKNLKGVIGYRPIHLQRDEENTPPRFENLRIDFGFSSADEAKKYVSIGDYVSFVSDYIEKNGRAVGKAFDDRAGCSVLIDVLESGVSPAYDTYFVFTVQEETGLRGSAVVVEQLKPTCAIVVETTTAGDNPELEERKWATHLGDGPAITFYHRGYVIPKEIFQTIVDTAKNNDIPFQMKRRTAGGTDAGRYARTAYGVPAGVISTPARYIHSPNSIIDLNDYENTKKLIKVLVEEGKIVEVVS
MGSDKIHHHHHHMYPQRIEPQPGQESVWDYPRPPRLEDTSKHIQIIFNGVIIADTQNAKRVLETSHPPSYYIPPGDIKMEHLIPTPQSSFCEWKGLAGYYTIRVGDKEVQNAAWFYPNPTTAFASLRDHVAFYAHLMDACYVDGDQVEPQPGNFYGGWITKDVVGPFKGIPGSWGW
MGSDKIHHHHHHMYQPISIVNIYYQGFGDKRLIGKLTMDGRRPTFGYDAAWLADGLELSPIEMPLRSAPYYGSHASSHYLCGLLSDSLPDGWGMLLMDRFFRRTISNTAPVNILDRLAYIGDSAMGALSFEPQHDLSANVIDMSELTLAKLAAANQTILSGQDSDILAELIVIGGSPQGARPKALVLYDESSDFITTDTASKNPSATSWLIKFPAQSEHKSVCLLEALYADMAKKAGLNMPMHHYFDIDSEYAAFGVERFDRMGNQRVHIHTLAGLLDIDFRIPSLDYLQYLRCVRMLTQSQLAVESAFKHAVFNVIFNNKDDHSKNFSFMMNEAGSWSLSPVYDLAYNSGMNGYHQMDVAGEARYPTLSHLLKLAKLADIKQNKAQAIIDQVASVAEDFLTVINDHDIEKELSNRVIQDIKANINRMVS
MGSDKIHHHHHHMYRVIELGHVISAPFAGEILRHLGFEVIKIEPLLGDPSRKDDVLVDSMFVFNNRGKRSISVDLRKEKGKEVFLRLVRNSHVLIENLSPHVMDRLGLSDDVIFSTNPSLVYCSIKGYPKGKYENLPAFGTIIEAESGIMDANGKARLPASITDMNASTYCVITILWALLMKKPGHYRVSIIQANTVWLGYYLIAYQKYGKLFEAGKDELPFWAPYELFKSSEEKEFYLAVNDNEKFTKLCKALGLEDLLADERFKTNADRVRNRKILHEKLQQKFSSMKLEEIMNILRYNDIPVGKLNNLKDLISNELVEWDTFRNVQVPKLPLPGSLNSQHVPNVGEDTLYILKELGYSENEIESMIKENVINYNK
